Target: rabbit MAP kinase kinase (MAPKK) (rabbit) (UniProt P29678)

MAPKK phosphorylation in S. pombe (32P-orthophosphate labelling, immunoprecipitation, phosphorimager): > 5 fold
Substance: ΔRaf-1 (human Raf-1 lacking the first 324 amino acids) (from UniProt P04049) (enzyme)
